# PMC11840787, “Detection of an Intermediate in the Unfolding Process of the N-Terminal Domain of TDP-43” (ACS Omega, 2025)
# B1: TDP-43 NTD (N-terminal domain of TAR DNA-binding protein 43), noncleaved, 99 residues (domain or fragment, UniProt Q13148 1-77, looked up)
# chain: MSEYIRVTEDENDEPIEIPSEDDGTVLLSTVTAQFPGACGLRYRNPVSQCMRGVRLVEGILHAPDAGWGNLVYVVNY
# notes: 99 residues in all with the 22-residue N-terminal tag, 11,081.29 Da; A cleaved 78-residue variant was used only for fluorescence kinetics, not for any test of the oligomeric state; also called noncleaved TDP-43 NTD; source: purified
# Columns and labels:
# [1] = target: TDP-43 (oligomer, isodesmic) NTD (Homo sapiens) (UniProt Q13148); conditions: cited from earlier work
# [2] = target: TDP-43 NTD (Homo sapiens) (UniProt Q13148); conditions: cited from earlier work
# [3] = target: the molecule itself; experiment: dynamic light scattering; 0.5 mg/mL (45 uM) protein in 4.5 M urea, DH recorded every 5 s, linear fit extrapolated to 0 s (unfolding intermediate)
Molecule,Kd [1],Kd [2],stoichiometry N [3]
TDP-43 NTD (from UniProt Q13148),40 µM,2400 nM,
B1,,,2
